The series can be described thus: yeast display, Sf9 membrane polyspecificity reagent, FACS + sequencing; frameworks hold sequencing errors. The procedure, abridged:
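Nanobodies came from a synthetic yeast display library in Saccharomyces cerevisiae BJ5465, induced with galactose for 36–48 hours and stained for 1 hour at 4 °C with 10% biotinylated, detergent-solubilized Sf9 membrane reagent. Cells were enriched on streptavidin microbeads and then FACS-sorted, with low and high (top ~1%) gates set on anti-HA fluorescence for expression and streptavidin fluorescence for reagent binding. Each polyreactivity label reflects the gate a clone came from. Genes were amplified by colony PCR, sequenced by MiSeq 2 × 250 and filtered by CDR length.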
Take “QVQLVESGGGLVQAGGSLRLSCAASGLTLRYYVMGWNSQAPGKERELVAAISSGGGSTYYADSVKGRFTISRDNAKNTVYLQMNSRKPEDTAVYYCAADSVSRYNGYDYWGQGTQVTVSS”: the “polyreactivity (PSR sort gate)” value is reported as “high polyreactivity”.

With “QVQLVESGGGLVQAGGSLRLSCAASGLTLSYNAMGWYRPAPGKERELVAAIRSGGSTNYADAVKGRFTISRDNANNTVYLQMNSLKPEDTAVYYCAARCRYLPYRDGRYQSGYEYWGQGTQVTVSS”, the “polyreactivity (PSR sort gate)” value is given as “high polyreactivity”.

As to “QVQLVESGGGLVQAGGSLRLSCAASGLTLTYYPMGLYRQAPGKERELVAAISSSGGSTYYADSVKGRFTISRDNAKNTVYLQMNSLKPEDSAVYDCAATRVSWTGRDDYWGQGTQVTVSS”, the “polyreactivity (PSR sort gate)” value is listed as “high polyreactivity”.

On to “QVQLVESGGGLVQAGGSLRLSCAASGLTLYYYAMGWYRQAPGKERELVAAMSYSGGSTYYADSVKGRFTISRDNAKNPVYLQMNSVKPEDTAVYYCAAVGDSDIRDEYWGQGTQVTVSS”, for which the “polyreactivity (PSR sort gate)” value is listed as “low polyreactivity”.

For the sequence “QVQLVESGGGLVQAGGSLRLSCAASGLTSEGNAMGWYRQAPGKERELVAAIDYRGGSTYYADSVKGRFTISRDNAKNSVYLQMNSLKPEDTAVYYCAADYPRGYIDDGDYWGQGTQVTVSS”, the “polyreactivity (PSR sort gate)” value is recorded as “low polyreactivity”.

In the case of “QVQLVESGGGLVQAGGSLRLSCAASGLTSVSNAMGWYRPAPGKERELVAAISSRGGITYYADSVKGRFTISRDNAKNTVYLQMNSLKPEDTAVYYCAKKTVQRGYYYWGQGTQVTVSS”, the “polyreactivity (PSR sort gate)” value is “high polyreactivity”.

Take “QVQLVESGGGLVQAGGSLRLSCAASGLTSWYNAMGWYRQAPGKEREFVAAISFSGGRTFYADSVKGRFTISRDNAKKTVYLQMNSLKPEDTAGYYCNADVYGFDYWGQGTQVTVSS”: the “polyreactivity (PSR sort gate)” value is recorded as “high polyreactivity”.

Turning to “QVQLVESGGGLVQAGGSLRLSCAASGLTSYFYDMGWYRQAPGKERELVAAIRASAARTYYADTVKGRFTISRDNAKNTVYLQMNSLKPEDTAVYSCAARYGYWRQFRWKYDYWGHGTQVTVSS”, the “polyreactivity (PSR sort gate)” value was “high polyreactivity”.

For the sequence “QVQLVESGGGLVQAGGSLRLSCAASGLTSYSYAMGWYRPAPGKERELVAAITVNGGRTYYADSVKGRFTISRDNAKNTVYLQMNSLKPEDTAVYYCAAREVTGRPRSYYYWGQGTQVTVSS”, the “polyreactivity (PSR sort gate)” value is given as “low polyreactivity”.

For the sequence “QVQLVESGGGLVQAGGSLRLSCAASGMIFADYVMGWYRQAPGKERELVATINQGGGSTYYADSVKGRFTISRDNAKNTVYLQMNSLKPEDTAVYYCAATWALLYAIFESYDYWGQGTQVTVSS”, the “polyreactivity (PSR sort gate)” value is “low polyreactivity”.

With “QVQLVESGGGLVQAGGSLRLSCAASGMIFFNYYAMGWYRQAPGKESELVAAIRYGGGSTYYADSVKGRFTISRDNGKNTVYLQMNSLKPEDTAVYYCAARFKGYYRYGYWGQGTQVTVSS”, the “polyreactivity (PSR sort gate)” value is on record as “high polyreactivity”.

“QVQLVESGGGLVQAGGSLRLSCAASGMIFPGNTMGWYRQAPGKERELVAAITNGVSTNYADSVKGRFTISRDNAKNTVYLQMNSLKPEDTAVYYCNGPFNYVGGYSNYSGFVYWGQGTQVTVSS”: the “polyreactivity (PSR sort gate)” value was “high polyreactivity”.

For the sequence “QVQLVESGGGLVQAGGSLRLSCAASGMIFVNAMGWYRQAPGKEREFVAAITYSTGSTYYADSVKGRFTISRDNAKNTVYLQMNSLKPEDTAVYYCAKDRSGHGTERDYWGQGTQVTVSS”, the “polyreactivity (PSR sort gate)” value is reported as “low polyreactivity”.

Regarding “QVQLVESGGGLVQAGGSLRLSCAASGNAMGWYRQAPGKERELVAAITRRGGSTYYADSVKGRFTISRDNAKNTVYLQMNSLKPEDTAVYYCNADYAYYSYDYWGQGTQVTVSS”, the “polyreactivity (PSR sort gate)” value is “low polyreactivity”.

“QVQLVESGGGLVQAGGSLRLSCAASGNFFVLYAMGWYRQAPGKERELVASITSDGITYYADSGKGRFTISRDNAKNTVYLQMNSLKPEDTAVYYCAVDRSYRYLPRGDYWGQGTQVTVSS”: the “polyreactivity (PSR sort gate)” value is “low polyreactivity”.

For the sequence “QVQLVESGGGLVQAGGSLRLSCAASGNIFAPNAMGWYRQAPGKERELVAAISRSGGSTHYADSVKGRFTISRDNAKNTVYLQMNSLKPEDTAVYYCAAGWYGRYTSKMGYWGQGTQVTVSS”, the “polyreactivity (PSR sort gate)” value was “high polyreactivity”.

Turning to “QVQLVESGGGLVQAGGSLRLSCAASGNIFAYYAMGWYRQAPGKERELVAAITDSGGNTFYADSVKGRFTISRDNAKNTVYLQMNSLKPEDTAVYYCAVRHRYTRAYWGRDYWGQGTQVTVSS”, the “polyreactivity (PSR sort gate)” value is “low polyreactivity”.

For “QVQLVESGGGLVQAGGSLRLSCAASGNIFDEYTMGWYRQAPGKEREFVAGISDDGDTSYADSVKGRFTISRDNAKNTVYLQMNSLKPEDTAVYYCNADDLSYYESYWGFLYDYWGQGTQVTVSS”, the “polyreactivity (PSR sort gate)” value is on record as “low polyreactivity”.

As to “QVQLVESGGGLVQAGGSLRLSCAASGNIFDGYAMGWYRQAPGKEREMVAAITSSAGSTYYADSVKGRFTISRDNAKNTVYLQMNSLKPEDTAVYYCNKVTKYRPIEGSWGQGTQVTVSS”, the “polyreactivity (PSR sort gate)” value is reported as “high polyreactivity”.

On to “QVQLVESGGGLVQAGGSLRLSCAASGNIFDIYAMGRYRQAPGKERELVAAISSGGSTYYADSVKGRFTISRDNAKNTVYLQMNSLKPEDTAVYYCAESRVGYYRYEYWGQGTQVTVSS”, for which the “polyreactivity (PSR sort gate)” value was “low polyreactivity”.

Take “QVQLVESGGGLVQAGGSLRLSCAASGNIFDIYAMGWYRPAPGTERELVAAISSGGSTYYADSVKGRFTISRDNAKNTVYLQMNSLKPEDTAVYYCAESRVGYYRYEYWGQGTQVTVSS”: the “polyreactivity (PSR sort gate)” value was “low polyreactivity”.

As to “QVQLVESGGGLVQAGGSLRLSCAASGNIFDRYAMGWYRQAPGKERELVAGITWSGGSTYYADSVKGRFTISRDNAKNTVYLQMNSLKPEDTAVYYCGQANYYWGQGSQVTVSS”, the “polyreactivity (PSR sort gate)” value is recorded as “low polyreactivity”.

“QVQLVESGGGLVQAGGSLRLSCAASGNIFDRYVMGWYRQAPVKERELVAAISVSGGSTYYADSVKGRFTISRDNEKNSVYLQMNCLKPEDTAVYYCAAHSRLINWYDYWGQGTQVTVSS”: the “polyreactivity (PSR sort gate)” value was “high polyreactivity”.

On to “QVQLVESGGGLVQAGGSLRLSCAASGNIFFIYAMGWYRQAPGKERELVAAITSTGSTYYADSVKGRFTISRDNAKNTVYLQMNSLKPEDTAVYYCAALLQRRFAYDYWGQGTQVTVSS”, for which the “polyreactivity (PSR sort gate)” value is reported as “low polyreactivity”.

“QVQLVESGGGLVQAGGSLRLSCAASGNIFFTYAMGWYRQAPGKERELVAAITSGGRTYYADSVKGRFTISRENPKNTFYLQMNSLKPEDTAVYYCASYYKYLGYGYWGQGTQVTVSS”: the “polyreactivity (PSR sort gate)” value is on record as “high polyreactivity”.

On to “QVQLVESGGGLVQAGGSLRLSCAASGNIFFVYAMGWYRQAPGKERELVATITWRGDSTNYADSVKGRFTISRDNAKNTVYLQMNSLKPEDTAVYYCNAEDSYYTFEGDSWGQGTQVTVSS”, for which the “polyreactivity (PSR sort gate)” value is on record as “low polyreactivity”.

For the sequence “QVQLVESGGGLVQAGGSLRLSCAASGNIFGEYAMGWYRQAPGKERELVATISSGGDTYYADSVKGRFTISRDNAKNTVYLQMNSLKPEDTAVYYCAVVDTLYESKYDYWGQGTQVTVSS”, the “polyreactivity (PSR sort gate)” value is “low polyreactivity”.

In the case of “QVQLVESGGGLVQAGGSLRLSCAASGNIFGFYTMGWYRQAPGKERELVAAIRSRGGSTNYADSVKGRFTISRDNAKNTVYLQMNSLTPEDTAVYYCNKDGTWLARAVTYADFDYWGQGTQVTVSS”, the “polyreactivity (PSR sort gate)” value was “low polyreactivity”.

As for “QVQLVESGGGLVQAGGSLRLSCAASGNIFGGNAMGWYRQAPGKERELVAAITRGGSTYYADSVKGRFTISRDNAKNTVYLQMNSLTPEDTAVYYCAAQLFKWKNRQSLWFDHGYYWGQGTQLTVSS”, the “polyreactivity (PSR sort gate)” value is “low polyreactivity”.

Take “QVQLVESGGGLVQAGGSLRLSCAASGNIFGGYAMGWYRQAPGKERELVATIRDRGGSTYYADSVKGRFTISRDNAKNSVYLQMNSLKPEDTAVYYCNPRFRTYRLTMEYWGQGTQVTVSS”: the “polyreactivity (PSR sort gate)” value is reported as “high polyreactivity”.

Regarding “QVQLVESGGGLVQAGGSLRLSCAASGNIFGNNAMGWYRPEPGKERELVAAISSSGTSTYYADSVKGRFTISLDNAKNTVYLQMNSLKPEDTAVYYCNADPLPYDGYYDYDYWGQGTQVTVSS”, the “polyreactivity (PSR sort gate)” value is recorded as “low polyreactivity”.

With “QVQLVESGGGLVQAGGSLRLSCAASGNIFGNNAMGWYRQAPGKERELVAAISSSGTSTYYADSVKGRFTISRDNAKNTVYFQMNSLKPEDTAVYYCNADPLPYDGYYDYDYWGQGTQVTVSS”, the “polyreactivity (PSR sort gate)” value is “low polyreactivity”.

As for “QVQLVESGGGLVQAGGSLRLSCAASGNIFGPNAMGWYRQAPGKESELVAAISISGSTYYADSVKGRFTISRDNAKNTVYLQRNSLNPEDTAVYYCAADYDSDYSWKYNYWGQGTQVTVSS”, the “polyreactivity (PSR sort gate)” value is recorded as “low polyreactivity”.

Consider “QVQLVESGGGLVQAGGSLRLSCAASGNIFGRYAMGWYRQAPGKARELVAAISGSGGRTYYADSVKGRFTISRYNAKKTVYLQMNSLKPEDTAVYYCAKVFALRGYDYWGQGTQVTVSS”, for which the “polyreactivity (PSR sort gate)” value is “high polyreactivity”.

On to “QVQLVESGGGLVQAGGSLRLSCAASGNIFGSNAMGWYRQAPGKERELVAAISGSNGGTYYADSVKGRFTISRDNAKNTVYLQMNSLKPEDTAVYYCNADFFSRWGYRYMDYWGQGTQVTVSS”, for which the “polyreactivity (PSR sort gate)” value is reported as “low polyreactivity”.

Take “QVQLVESGGGLVQAGGSLRLSCAASGNIFIYNAMGWYRQAPGKERELVASITYSGDSTYYADSVKGRFTISRDNAKNTVYLQMNSLKPEDTAVYFCAAQGYGWWYDYWGQGSQVTVSS”: the “polyreactivity (PSR sort gate)” value was “low polyreactivity”.

With “QVQLVESGGGLVQAGGSLRLSCAASGNIFKGYAMGWYRQAPGKERELVAAISKSGGSTYYADSVKGRFTISRDNAKNTVYLQMNSLKPDDTAVYYCNTYTYAGYNYWGQGTQVTVSS”, the “polyreactivity (PSR sort gate)” value was “high polyreactivity”.

As to “QVQLVESGGGLVQAGGSLRLSCAASGNIFKVYVMGGSRQAPGKERELVAAISGSGGSTYYADSVKGRFTISRDNAKTTVYLQMNSLKPEDTSVYYCNKVFKVTAARSFGYWGQGTQVTVSS”, the “polyreactivity (PSR sort gate)” value is listed as “low polyreactivity”.

On to “QVQLVESGGGLVQAGGSLRLSCAASGNIFLFYVMGWYRQAPGKERELVAAITLSGTNTYYADSVKGRFTISRDNAKNTVYLQMNSLKPEDTAVYYCNADWWSDGYDYWGQGTQVTVSS”, for which the “polyreactivity (PSR sort gate)” value was “low polyreactivity”.

In the case of “QVQLVESGGGLVQAGGSLRLSCAASGNIFLSYAIGCYRQAPGKEREFVPAIRWSGASTYYADSVKGRFTISRDNAKNTVELQMNSLKPEDTAVYYCGRRALCPRRGIRYDYWGQGSQVTVSS”, the “polyreactivity (PSR sort gate)” value is given as “high polyreactivity”.

With “QVQLVESGGGLVQAGGSLRLSCAASGNIFLYYDMGWYRQAPGKERELVADIDSSGASTYYADSVKGRFTISRDNAKNTVYLQMNSLKPEDTAVYYCAAELHWWYAGYEYGYWGQGTQVTVSS”, the “polyreactivity (PSR sort gate)” value is reported as “low polyreactivity”.

The record behind these values is the nanobody polyreactivity screen of Harvey et al. (2022).
